This is an account of results in patent US20180282402A1 (ATYR PHARMA, published 2018).

In assay [1] the target is T1, NRP1-His (R&D Systems #3870-N1) (human, UniProt O14786-2 22-644).
T1 construct: not shown: His tag
The assay can be described thus: SPR: NRP1 as analyte over immobilized Fc-HRS(2-60). Background: In SPR one partner is held on a chip, and binding of the other changes the refractive index at the surface.

The target of assay [2] is T2, Mouse PLXNA1-His (R&D Systems #4309-PA) (mouse, UniProt P70206 28-1242, limits assumed).
T2 construct: also called mouse Plexin A1; not shown: His tag
T2 sequence (P70206 28-1242 limits assumed): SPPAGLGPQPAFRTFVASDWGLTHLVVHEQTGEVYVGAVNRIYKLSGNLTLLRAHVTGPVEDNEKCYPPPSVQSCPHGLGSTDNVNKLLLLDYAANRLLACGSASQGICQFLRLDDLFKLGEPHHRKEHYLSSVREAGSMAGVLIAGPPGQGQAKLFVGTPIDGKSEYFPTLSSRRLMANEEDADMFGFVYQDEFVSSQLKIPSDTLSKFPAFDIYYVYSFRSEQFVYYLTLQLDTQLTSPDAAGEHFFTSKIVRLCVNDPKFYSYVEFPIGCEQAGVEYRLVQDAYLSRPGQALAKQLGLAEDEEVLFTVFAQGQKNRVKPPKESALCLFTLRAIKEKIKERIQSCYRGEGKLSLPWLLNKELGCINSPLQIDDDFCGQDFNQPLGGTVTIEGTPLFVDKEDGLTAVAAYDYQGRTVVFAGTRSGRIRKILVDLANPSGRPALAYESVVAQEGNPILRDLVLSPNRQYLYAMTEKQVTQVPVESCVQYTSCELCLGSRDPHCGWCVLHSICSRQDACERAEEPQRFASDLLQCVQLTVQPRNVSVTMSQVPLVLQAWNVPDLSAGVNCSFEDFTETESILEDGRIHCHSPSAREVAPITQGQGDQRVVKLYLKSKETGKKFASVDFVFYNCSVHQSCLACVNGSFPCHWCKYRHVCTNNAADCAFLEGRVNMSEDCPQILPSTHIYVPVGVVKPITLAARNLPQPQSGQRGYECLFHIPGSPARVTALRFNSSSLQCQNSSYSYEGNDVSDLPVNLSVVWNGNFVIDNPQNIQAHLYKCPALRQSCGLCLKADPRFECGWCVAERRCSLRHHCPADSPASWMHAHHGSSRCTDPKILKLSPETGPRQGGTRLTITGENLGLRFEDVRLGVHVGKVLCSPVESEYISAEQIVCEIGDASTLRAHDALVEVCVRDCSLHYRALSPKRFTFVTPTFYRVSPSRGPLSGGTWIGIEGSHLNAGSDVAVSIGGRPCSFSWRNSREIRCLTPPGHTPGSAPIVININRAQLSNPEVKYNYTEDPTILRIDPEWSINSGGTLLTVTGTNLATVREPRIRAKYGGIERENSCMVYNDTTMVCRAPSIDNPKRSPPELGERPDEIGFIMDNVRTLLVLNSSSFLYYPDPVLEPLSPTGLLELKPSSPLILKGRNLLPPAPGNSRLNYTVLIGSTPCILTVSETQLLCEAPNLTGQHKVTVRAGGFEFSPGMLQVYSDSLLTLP
The assay is described as follows: SPR: mouse Plexin A1 as analyte over immobilized Fc-HRS(2-60).

The target of assay [3] is T3, Rat NRP2-Fc-His (R&D Systems #567-N2) (rat, UniProt O35276 23-858, limits assumed).
T3 construct: not shown: Fc and His tag
T3 sequence (looked up): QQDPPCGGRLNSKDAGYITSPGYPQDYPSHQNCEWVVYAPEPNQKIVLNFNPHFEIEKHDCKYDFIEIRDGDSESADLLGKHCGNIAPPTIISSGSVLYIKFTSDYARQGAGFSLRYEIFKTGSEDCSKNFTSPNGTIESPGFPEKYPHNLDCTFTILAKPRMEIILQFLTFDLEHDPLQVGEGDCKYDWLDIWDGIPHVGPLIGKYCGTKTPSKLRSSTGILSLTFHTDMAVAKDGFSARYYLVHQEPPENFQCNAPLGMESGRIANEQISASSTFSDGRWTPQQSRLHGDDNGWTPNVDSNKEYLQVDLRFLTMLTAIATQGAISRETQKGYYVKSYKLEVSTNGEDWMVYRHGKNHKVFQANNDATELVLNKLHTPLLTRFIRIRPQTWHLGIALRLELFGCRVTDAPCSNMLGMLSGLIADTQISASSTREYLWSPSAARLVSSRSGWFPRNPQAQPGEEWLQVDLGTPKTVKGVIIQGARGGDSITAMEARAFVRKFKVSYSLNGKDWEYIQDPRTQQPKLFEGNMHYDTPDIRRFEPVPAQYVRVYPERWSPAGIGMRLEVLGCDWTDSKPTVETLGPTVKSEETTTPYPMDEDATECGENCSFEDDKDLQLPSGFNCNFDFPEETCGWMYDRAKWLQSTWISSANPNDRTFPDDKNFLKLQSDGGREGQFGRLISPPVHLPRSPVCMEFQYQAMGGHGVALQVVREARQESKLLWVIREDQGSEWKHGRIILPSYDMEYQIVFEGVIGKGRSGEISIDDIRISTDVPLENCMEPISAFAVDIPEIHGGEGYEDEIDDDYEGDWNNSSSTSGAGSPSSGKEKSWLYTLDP
The assay can be described thus: SPR: 50 nM rat NRP2 as analyte over immobilized Fc-HRS(2-60) [panel A].

Assay [4] addresses T4, Neuropilin 2A (NRP2A, NM_003872.2) on cells (human, UniProt O60462 23-931).
T4 construct: Used here for the Retrogenix HEK293 array and for the untagged NRP2v2 stably expressed on Expi293 cells; also called NRP2 variant 2; NRP2v2
The assay is described as follows: Retrogenix cell microarray on HEK293 cells, sequential staining, 20 ug/ml test protein, AF647 anti-human IgG Fc detection. On the procedure: The detection antibody was used at screening concentrations of 2, 5, and 20 μg/ml, as more fully described below.
Primary hits (duplicate spots) were identified by analyzing fluorescence intensity in the AlexaFluor 647 and ZsGreen1 emission channels using the ImageQuant system, following standard fluorescent methodology. […] Additionally all vectors encoding all hits, plus control vectors, were spotted in duplicate on new slides, and used to reverse transfect human HEK293 cells as before.

Assay [5] addresses T5, NRP2a-GFP fusion protein on HEK293T cells (human, UniProt O60462 23-931).
T5 construct: Transiently expressed; cells fixed before staining; also called NRP2v2-GFP; cell-expressed NRP2a; not shown: GFP (Origene RG220706, NM_003872 ORF clone)
The assay can be described thus: immunofluorescence microscopy (IN Cell Analyzer) on fixed HEK293T cells expressing NRP2v2-GFP, GFP-bright gate; Fc-HRS(2-60) titrated in 2-fold steps and complexed with anti-Fc-PE [panel A]. As for the experimental part: HEK293T cells previously transfected with NRP2v2-GFP were passed the night before staining to 96 well Greiner Clear flat bottomed Microplates pre-coated with collagen coating solution. Supernatants were removed and cells were washed 1 time with binding buffer. Cells were then fixed with 50 μL of 3.7% methanol-free formaldehyde for 20 minutes at room temperature. Cells were washed 2× with binding buffer and then blocked with 100 μL of blocking buffer for 1 hour at room temperature. The cells were then washed one time with binding buffer and then incubated with 50 μL of staining complex overnight at 4 degrees Celsius. Cells were then washed 3 times with binding buffer, and then nuclei were counter stained with […] Hoechst diluted in DPBS for 10 minutes at room temperature. The Hoechst stain was replaced with 1×PBS and subsequently read on an IN Cell Analyzer 2200. 20× images were acquired and analyzed using In Cell Analyzer 1000 Workstation software. Segmentation of the cell mask was achieved using the GFP channel, and the average PE signal intensity was determined within this mask above a threshold intensity of 5000 (termed GFP Bright cells).

No end group written: not given here.

B1: Fc-HRS(2-60) (Fc fusion)
chain: {human IgG Fc}-AERAALEELVKLQGERVRGLKQQKASAELIEEEVAKLLKLKAQLGPDESKQKFVLKTPK
modifications: also: linker to Fc not given here, biotinylated for flow assay (maleimide-PEG11-biotin, ~3.35 per molecule)
notes: Fc at the N-terminus, HRS residues 2-60 (WHEP domain) at the C-terminus; in the imaging assay pre-complexed with anti-Fc-PE; also called HRS-Fc fusion protein construct; ATYR1923; not shown: human IgG Fc region
Consider B1, for which the binding result in assay [1] is recorded as “no binding (tested: 50 nM)”; in assay [2], “no binding (tested: 50 nM)”; in assay [3], “binds”; in assay [4] it was “binds”; in assay [5], “binds”.
